Assays:
Test in all cases: Immunohistochemical staining of placental trophoblasts
Assay type in all cases: binding
Settings in all cases: frozen thin sections, antibody 10 μg/ml
[1] = molecular target: T1, αvβ3 expressed on placenta (placental trophoblasts) (Homo sapiens, UniProt P05106)
T1 construct: from tissue; host or cells: placenta (frozen sections)
Description: (§1) Table 3. Immunohistochemical staining of placental trophoblasts. Placental tissue, a rich source of αvβ3, was collected either immediately after parturition or from freshly-sacrificed, late-term pregnant animals. Tissue fragments, approximately 1 cm^3, were frozen in OCT, and thin sections were stained with monoclonal antibodies (10 μg/ml) at Sierra Biomedical (Sparks, Nev.). Vitaxin® recognized αvβ3 expressed on human, monkey, guinea pig, hamster and rabbit placenta, while […] with human and monkey αvβ3. […] ND, not done.

[2] = molecular target: T2, αvβ3 expressed on placenta (placental trophoblasts) (Mus musculus, UniProt O54890)
T2 construct: from tissue; host or cells: placenta (frozen sections)
T2 sequence (O54890 26-787): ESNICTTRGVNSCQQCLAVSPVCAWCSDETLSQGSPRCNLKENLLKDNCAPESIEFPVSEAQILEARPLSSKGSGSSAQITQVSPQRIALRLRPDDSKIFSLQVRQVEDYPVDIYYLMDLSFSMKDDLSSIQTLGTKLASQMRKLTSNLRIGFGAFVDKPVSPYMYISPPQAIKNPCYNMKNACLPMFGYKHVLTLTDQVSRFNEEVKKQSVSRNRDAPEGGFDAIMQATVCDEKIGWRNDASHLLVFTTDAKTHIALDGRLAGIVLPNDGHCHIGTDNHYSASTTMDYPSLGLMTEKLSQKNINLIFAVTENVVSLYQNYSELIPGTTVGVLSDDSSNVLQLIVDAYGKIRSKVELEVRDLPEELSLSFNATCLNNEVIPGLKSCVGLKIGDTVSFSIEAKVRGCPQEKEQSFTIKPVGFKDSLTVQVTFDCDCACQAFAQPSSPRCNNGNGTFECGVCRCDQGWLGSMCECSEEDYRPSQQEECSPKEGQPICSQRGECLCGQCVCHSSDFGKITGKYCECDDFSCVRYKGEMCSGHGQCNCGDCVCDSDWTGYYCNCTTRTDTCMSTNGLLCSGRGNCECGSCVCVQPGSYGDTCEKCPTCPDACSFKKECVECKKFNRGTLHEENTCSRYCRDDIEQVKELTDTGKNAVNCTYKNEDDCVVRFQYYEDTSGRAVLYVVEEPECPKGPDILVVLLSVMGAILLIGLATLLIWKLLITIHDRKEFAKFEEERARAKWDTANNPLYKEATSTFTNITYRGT
T2 sequence (P43406 31-885 partner limits assumed): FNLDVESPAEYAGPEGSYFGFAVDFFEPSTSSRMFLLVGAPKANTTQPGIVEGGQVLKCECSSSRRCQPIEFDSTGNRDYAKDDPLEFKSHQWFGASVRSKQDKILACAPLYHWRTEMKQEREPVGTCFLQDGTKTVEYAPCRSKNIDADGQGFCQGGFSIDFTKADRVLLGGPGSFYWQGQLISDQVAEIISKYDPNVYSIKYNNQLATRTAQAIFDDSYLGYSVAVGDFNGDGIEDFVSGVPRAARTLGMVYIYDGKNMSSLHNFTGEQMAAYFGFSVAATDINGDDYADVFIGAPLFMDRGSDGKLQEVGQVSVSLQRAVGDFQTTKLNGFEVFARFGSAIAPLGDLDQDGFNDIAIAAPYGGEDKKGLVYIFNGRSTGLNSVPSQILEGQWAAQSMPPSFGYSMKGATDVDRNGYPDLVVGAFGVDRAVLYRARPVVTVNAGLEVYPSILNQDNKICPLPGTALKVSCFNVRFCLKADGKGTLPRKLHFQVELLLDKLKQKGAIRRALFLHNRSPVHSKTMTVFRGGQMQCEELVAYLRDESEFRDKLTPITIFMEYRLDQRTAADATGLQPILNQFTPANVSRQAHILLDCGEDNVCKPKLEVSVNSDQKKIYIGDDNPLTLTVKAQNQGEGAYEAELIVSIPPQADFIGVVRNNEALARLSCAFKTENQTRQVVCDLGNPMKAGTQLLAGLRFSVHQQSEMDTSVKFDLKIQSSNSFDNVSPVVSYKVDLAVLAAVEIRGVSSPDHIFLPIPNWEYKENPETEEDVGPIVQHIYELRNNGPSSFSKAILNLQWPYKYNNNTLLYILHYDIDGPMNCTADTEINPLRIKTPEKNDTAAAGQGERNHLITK
T2 sequence (P43406 887-1044 partner limits assumed): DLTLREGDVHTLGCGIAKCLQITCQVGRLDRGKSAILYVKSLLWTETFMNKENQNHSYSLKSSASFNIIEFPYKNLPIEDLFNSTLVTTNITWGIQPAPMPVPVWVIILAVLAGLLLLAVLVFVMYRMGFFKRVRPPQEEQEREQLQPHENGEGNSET
Description: as §1

[3] = molecular target: T3, αvβ3 expressed on placenta (placental trophoblasts) (Rattus norvegicus, UniProt Q8R2H2)
T3 construct: from tissue; host or cells: placenta (frozen sections)
T3 sequence (Q8R2H2 26-787): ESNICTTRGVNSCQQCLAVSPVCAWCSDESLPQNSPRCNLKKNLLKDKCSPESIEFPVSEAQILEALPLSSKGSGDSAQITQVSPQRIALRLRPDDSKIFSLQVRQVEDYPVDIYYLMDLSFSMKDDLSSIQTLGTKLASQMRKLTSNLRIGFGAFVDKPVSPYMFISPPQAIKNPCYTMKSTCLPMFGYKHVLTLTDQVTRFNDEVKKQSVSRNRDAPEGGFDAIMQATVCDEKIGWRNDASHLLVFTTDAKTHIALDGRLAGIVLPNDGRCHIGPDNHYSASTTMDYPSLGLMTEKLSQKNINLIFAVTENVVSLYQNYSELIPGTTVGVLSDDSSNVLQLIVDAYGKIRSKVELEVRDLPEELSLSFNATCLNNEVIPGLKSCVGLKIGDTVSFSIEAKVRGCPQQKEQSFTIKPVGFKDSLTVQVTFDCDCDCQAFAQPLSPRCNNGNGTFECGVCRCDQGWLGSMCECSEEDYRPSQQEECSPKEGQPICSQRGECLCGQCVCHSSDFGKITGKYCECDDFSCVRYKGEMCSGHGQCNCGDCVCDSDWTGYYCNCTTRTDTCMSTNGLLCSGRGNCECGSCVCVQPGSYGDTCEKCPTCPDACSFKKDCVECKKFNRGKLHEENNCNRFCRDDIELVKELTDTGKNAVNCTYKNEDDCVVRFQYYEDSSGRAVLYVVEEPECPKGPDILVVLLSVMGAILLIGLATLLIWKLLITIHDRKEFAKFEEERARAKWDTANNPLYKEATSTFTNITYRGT
Description: as §1

[4] = test system: αvβ3 expressed on placenta (placental trophoblasts)
Description: as §1

T1 sequence (P05106 27-788): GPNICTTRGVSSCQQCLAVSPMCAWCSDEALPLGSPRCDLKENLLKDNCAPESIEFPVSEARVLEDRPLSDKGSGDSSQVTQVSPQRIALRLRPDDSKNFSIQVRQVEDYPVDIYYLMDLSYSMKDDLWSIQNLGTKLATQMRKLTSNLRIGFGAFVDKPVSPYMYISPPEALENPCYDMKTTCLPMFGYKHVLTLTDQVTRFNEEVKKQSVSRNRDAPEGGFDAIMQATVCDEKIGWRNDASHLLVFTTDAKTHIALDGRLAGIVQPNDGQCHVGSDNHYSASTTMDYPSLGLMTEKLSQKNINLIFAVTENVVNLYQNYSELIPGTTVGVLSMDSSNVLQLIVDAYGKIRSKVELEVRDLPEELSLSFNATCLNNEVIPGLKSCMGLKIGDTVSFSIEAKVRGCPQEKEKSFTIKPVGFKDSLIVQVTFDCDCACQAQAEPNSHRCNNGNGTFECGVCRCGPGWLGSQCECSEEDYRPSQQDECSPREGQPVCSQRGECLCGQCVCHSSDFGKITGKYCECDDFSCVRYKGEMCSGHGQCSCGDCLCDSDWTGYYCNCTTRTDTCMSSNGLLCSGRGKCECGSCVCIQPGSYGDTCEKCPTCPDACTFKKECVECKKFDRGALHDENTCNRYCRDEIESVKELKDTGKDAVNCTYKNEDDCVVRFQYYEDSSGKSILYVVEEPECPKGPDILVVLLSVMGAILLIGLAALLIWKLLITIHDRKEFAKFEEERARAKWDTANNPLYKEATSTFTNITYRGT
T1 sequence (P06756 31-889 partner limits assumed): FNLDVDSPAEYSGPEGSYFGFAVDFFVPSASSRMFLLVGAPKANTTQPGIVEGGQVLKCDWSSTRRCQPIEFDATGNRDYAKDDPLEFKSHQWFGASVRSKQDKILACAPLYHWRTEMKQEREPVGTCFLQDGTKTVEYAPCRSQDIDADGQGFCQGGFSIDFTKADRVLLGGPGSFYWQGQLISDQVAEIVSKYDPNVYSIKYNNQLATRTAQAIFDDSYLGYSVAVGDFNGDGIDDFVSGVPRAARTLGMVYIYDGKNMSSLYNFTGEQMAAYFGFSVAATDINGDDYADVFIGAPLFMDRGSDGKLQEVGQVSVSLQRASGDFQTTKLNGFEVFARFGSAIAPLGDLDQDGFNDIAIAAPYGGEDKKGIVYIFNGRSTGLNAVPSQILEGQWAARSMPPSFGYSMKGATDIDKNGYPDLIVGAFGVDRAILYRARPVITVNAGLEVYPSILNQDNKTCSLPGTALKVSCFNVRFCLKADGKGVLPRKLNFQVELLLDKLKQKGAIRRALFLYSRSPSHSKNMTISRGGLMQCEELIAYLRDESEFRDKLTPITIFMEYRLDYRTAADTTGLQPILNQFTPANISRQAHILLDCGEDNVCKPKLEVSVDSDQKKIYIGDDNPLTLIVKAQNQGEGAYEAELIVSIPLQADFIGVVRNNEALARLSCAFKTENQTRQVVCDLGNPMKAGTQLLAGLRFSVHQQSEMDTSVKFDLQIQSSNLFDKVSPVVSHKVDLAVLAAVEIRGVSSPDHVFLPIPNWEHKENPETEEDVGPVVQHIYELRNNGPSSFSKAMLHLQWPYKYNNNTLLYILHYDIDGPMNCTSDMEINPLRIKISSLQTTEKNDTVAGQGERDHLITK
T1 sequence (P06756 891-1048 partner limits assumed): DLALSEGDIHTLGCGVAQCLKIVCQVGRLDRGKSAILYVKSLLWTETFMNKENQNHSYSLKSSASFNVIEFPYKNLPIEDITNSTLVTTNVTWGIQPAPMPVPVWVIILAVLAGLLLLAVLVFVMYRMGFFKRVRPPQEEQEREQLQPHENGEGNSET

B1: Vitaxin®: humanized blocking monoclonal antibody that binds Integrin αVβ3 (MEDI-522, MedImmune); humanized and optimized version of LM609 (antibody, chains of the INN, looked up, V domains shown)
VH: QVQLVESGGGVVQPGRSLRLSCAASGFTFSSYDMSWVRQAPGKGLEWVAKVSSGGGSTYYLDTVQGRFTISRDNSKNTLYLQMNSLRAEDTAVYYCARHLHGSFASWGQGTTVTVSS
VL: EIVLTQSPATLSLSPGERATLSCQASQSISNFLHWYQQRPGQAPRLLIRYRSQSISGIPARFSGSGSGTDFTLTISSLEPEDFAVYYCQQSGSWPLTFGGGTKVEIK
Staining of Placental Trophoblasts [1]: recognized | Staining of Placental Trophoblasts [2]: Negative | Staining of Placental Trophoblasts [3]: Negative | Staining of Placental Trophoblasts ([4]; Cynomolgus monkey placenta): recognized | Staining of Placental Trophoblasts ([4]; Guinea pig placenta): recognized | Staining of Placental Trophoblasts ([4]; Hamster placenta): recognized | Staining of Placental Trophoblasts ([4]; Rabbit placenta): recognized
